Experimental data as given in paper PMC4114562.

Biological target: rFKBP22 (a recombinant E. coli FKBP22) (Escherichia coli) (UniProt P0A9L3)
Assay: cross-linking; glutaraldehyde-mediated chemical cross-linking of rFKBP22 (bound/unbound with rapamycin) at 30°–85°C, analysed by SDS-13.5% PAGE

rFKBP22 (a recombinant E. coli FKBP22) (from UniProt P0A9L3 1-206) (enzyme)
stoichiometry N: 2
